Measurements reported in article PMC4917879 (Biochemistry, 2016).
Blank lines part the entries; values can stand above or below the molecule they belong to.

What was measured:
[1] = target: T1, Formate dehydrogenase from Candida boidinii (CbFDH) ([Candida] boidinii, UniProt A0A0A1EQY0); experiment: ITC and crystal structure of the ternary complex with azide at […] Å; type: binding
T1 sequence (A0A0A1EQY0 1-364): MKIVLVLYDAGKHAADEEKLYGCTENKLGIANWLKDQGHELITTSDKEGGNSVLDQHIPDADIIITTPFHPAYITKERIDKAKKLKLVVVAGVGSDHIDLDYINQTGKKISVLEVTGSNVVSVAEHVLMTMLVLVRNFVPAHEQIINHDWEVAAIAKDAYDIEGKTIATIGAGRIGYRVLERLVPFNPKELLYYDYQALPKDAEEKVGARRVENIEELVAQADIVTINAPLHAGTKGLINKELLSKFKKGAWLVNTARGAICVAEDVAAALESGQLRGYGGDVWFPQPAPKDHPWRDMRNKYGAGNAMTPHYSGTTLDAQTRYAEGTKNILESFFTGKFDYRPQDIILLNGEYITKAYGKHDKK

[2] = substrate: O=CO; experiment: purified protein; type: biochemical, [Candida] boidinii; conditions: NAD+

Kd [1]: 92 ± 4 µM
Molecule: NC(=O)c1ccc[n+]([C@@H]2O[C@H](COP(=O)([O-])OP(=O)(O)OC[C@H]3O[C@@H](n4cnc5c(N)ncnc54)[C@H](O)[C@@H]3O)[C@@H](O)[C@H]2O)c1 [NAD+]

B1: Formate dehydrogenase from Candida boidinii (CbFDH) ([Candida] boidinii) (protein)
chain: T1 sequence (A0A0A1EQY0 1-364)
kcat [2]: 5.6 ± 0.2 s⁻¹ | kcat/Km [2]: 1400 ± 200 M⁻¹ s⁻¹
